Test results: IntAct's records for PubMed 18256688

B1: Regulator of nonsense transcripts 1 (Homo sapiens), Q92900 (parent)
chain: MSVEAYGPSSQTLTFLDTEEAELLGADTQGSEFEFTDFTLPSQTQTPPGGPGGPGGGGAGGPGGAGAGAAAGQLDAQVGPEGILQNGAVDDSVAKTSQLLAELNFEEDEEDTYYTKDLPIHACSYCGIHDPACVVYCNTSKKWFCNGRGNTSGSHIVNHLVRAKCKEVTLHKDGPLGETVLECYNCGCRNVFLLGFIPAKADSVVVLLCRQPCASQSSLKDINWDSSQWQPLIQDRCFLSWLVKIPSEQEQLRARQITAQQINKLEELWKENPSATLEDLEKPGVDEEPQHVLLRYEDAYQYQNIFGPLVKLEADYDKKLKESQTQDNITVRWDLGLNKKRIAYFTLPKTDSGNEDLVIIWLRDMRLMQGDEICLRYKGDLAPLWKGIGHVIKVPDNYGDEIAIELRSSVGAPVEVTHNFQVDFVWKSTSFDRMQSALKTFAVDETSVSGYIYHKLLGHEVEDVIIKCQLPKRFTAQGLPDLNHSQVYAVKTVLQRPLSLIQGPPGTGKTVTSATIVYHLARQGNGPVLVCAPSNIAVDQLTEKIHQTGLKVVRLCAKSREAIDSPVSFLALHNQIRNMDSMPELQKLQQLKDETGELSSADEKRYRALKRTAERELLMNADVICCTCVGAGDPRLAKMQFRSILIDESTQATEPECMVPVVLGAKQLILVGDHCQLGPVVMCKKAAKAGLSQSLFERLVVLGIRPIRLQVQYRMHPALSAFPSNIFYEGSLQNGVTAADRVKKGFDFQWPQPDKPMFFYVTQGQEEIASSGTSYLNRTEAANVEKITTKLLKAGAKPDQIGIITPYEGQRSYLVQYMQFSGSLHTKLYQEVEIASVDAFQGREKDFIILSCVRANEHQGIGFLNDPRRLNVALTRARYGVIIVGNPKALSKQPLWNHLLNYYKEQKVLVEGPLNNLRESLMQFSKPRKLVNTINPGARFMTTAMYDAREAIIPGSVYDRSSQGRPSSMYFQTHDQIGMISAGPSHVAAMNIPIPFNLVMPPMPPPGYFGQANGPAAGRGTPKGKTGRGGRQKNRFGLPGPSQTNLPNSQASQDVASQPFSQGALTQGYISMSQPSQMSQPGLSQPELSQDSYLGDEFKSQIDVALSQDSTYQGERAYQHGGVTGLSQY

Variants of: B1
Conditions: with rent2_human UPF2, Q9HAU5
Chain of rent2_human UPF2, Q9HAU5 (Q9HAU5 whole entry): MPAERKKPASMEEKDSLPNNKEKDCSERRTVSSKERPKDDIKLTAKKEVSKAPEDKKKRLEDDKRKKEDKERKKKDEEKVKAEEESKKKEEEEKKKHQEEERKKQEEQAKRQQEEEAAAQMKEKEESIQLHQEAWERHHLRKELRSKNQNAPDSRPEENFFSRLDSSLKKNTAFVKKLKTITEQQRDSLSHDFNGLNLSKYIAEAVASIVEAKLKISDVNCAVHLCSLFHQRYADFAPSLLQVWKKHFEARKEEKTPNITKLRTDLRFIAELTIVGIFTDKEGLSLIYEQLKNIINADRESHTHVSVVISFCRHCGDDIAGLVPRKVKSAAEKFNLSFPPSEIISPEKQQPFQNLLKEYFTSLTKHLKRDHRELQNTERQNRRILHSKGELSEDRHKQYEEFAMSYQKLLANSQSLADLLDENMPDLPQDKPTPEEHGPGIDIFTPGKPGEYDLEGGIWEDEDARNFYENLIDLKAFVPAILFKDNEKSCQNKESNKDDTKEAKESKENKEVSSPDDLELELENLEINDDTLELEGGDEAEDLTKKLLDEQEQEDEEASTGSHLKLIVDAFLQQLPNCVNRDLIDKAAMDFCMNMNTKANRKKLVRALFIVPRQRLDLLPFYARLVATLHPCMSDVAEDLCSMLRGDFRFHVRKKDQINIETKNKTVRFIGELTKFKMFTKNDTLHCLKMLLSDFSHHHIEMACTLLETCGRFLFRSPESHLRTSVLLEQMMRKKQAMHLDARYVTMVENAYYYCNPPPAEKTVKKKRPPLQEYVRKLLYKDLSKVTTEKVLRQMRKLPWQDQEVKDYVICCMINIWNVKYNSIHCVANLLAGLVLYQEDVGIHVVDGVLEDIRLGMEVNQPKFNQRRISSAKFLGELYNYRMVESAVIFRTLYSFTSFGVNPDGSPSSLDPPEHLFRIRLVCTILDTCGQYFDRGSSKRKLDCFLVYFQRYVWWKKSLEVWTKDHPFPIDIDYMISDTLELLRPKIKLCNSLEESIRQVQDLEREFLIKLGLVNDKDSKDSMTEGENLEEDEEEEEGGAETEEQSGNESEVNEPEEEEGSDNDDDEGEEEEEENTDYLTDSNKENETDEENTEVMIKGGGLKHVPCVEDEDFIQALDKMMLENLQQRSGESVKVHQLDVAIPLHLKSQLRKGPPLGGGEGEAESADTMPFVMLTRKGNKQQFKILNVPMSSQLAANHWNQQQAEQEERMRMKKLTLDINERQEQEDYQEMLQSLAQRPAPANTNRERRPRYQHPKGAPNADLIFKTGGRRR

Row | Variant | effect of a mutation on the interaction
1 | C126S | disrupting interaction

Variants of: B1
Conditions: with rent2_human UPF2, Q9HAU5
Remark: another data set of the same source

Row | Variant | effect of a mutation on the interaction
2 | Y184D | disrupting interaction
3 | C183V | disrupting interaction
4 | L181V | disrupting interaction
5 | E182R | disrupting interaction

Variants of: B1
Conditions: with rent2_human UPF2, Q9HAU5
Remark: another data set of the same source

Row | Variant | effect of a mutation on the interaction
6 | V204D | disrupting interaction
7 | V205I | disrupting interaction
